Numbered stars: 1 amine (or outer) side, 2 acyl side, 3 side chain; on linkers, the order of the positions; unused ones are H or OH. Bridge positions count the residues as written; N and C are the ends. Side chains are listed from the residue outwards. Ends that are not written are not given here. * marks the point of attachment. C20 diacid = O=C(O)CCCCCCCCCCCCCCCCCCC(=O)*; γGlu = O=C(O)[C@H](CCC(=O)[*:2])N[*:1]; AEEA = NCCOCCOCC(=O)O
T1: human calcitonin receptor (human, UniProt P30988 25-474)
T1 sequence (looked up): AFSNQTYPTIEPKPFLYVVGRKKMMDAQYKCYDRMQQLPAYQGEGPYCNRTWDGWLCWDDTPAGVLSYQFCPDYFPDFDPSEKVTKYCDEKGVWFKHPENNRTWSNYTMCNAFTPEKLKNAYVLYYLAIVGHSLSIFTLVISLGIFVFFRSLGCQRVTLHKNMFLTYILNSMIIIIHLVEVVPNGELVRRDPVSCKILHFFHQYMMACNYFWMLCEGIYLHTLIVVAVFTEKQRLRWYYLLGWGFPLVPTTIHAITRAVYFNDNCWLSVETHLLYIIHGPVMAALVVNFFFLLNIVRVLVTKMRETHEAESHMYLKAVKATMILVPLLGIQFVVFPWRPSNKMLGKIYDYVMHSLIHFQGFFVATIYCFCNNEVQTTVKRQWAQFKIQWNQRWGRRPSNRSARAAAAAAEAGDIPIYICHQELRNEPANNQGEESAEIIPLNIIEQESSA


Target: T1, human calcitonin receptor
Experiment: cell-based or functional assay

Row | Ratio hCT/hAmylin funct. | Binder
1 | 15.4 | K([AEEA-γGlu-C20 diacid])CNTATCATQRLAHFLRHSSPNFGAIPSSTNVGHNTY-NH2 (disulfide 2-7; N-terminus assumed; SMILES CC[C@H](C)[C@H](NC(=O)[C@H](C)NC(=O)CNC(=O)[C@H](Cc1ccccc1)NC(=O)[C@H](CC(N)=O)NC(=O)[C@@H]1CCCN1C(=O)[C@H](CO)NC(=O)[C@H](CO)NC(=O)[C@H](Cc1c[nH]cn1)NC(=O)[C@H](CCCNC(=N)N)NC(=O)[C@H](CC(C)C)NC(=O)[C@H](Cc1ccccc1)NC(=O)[C@H](Cc1c[nH]cn1)NC(=O)[C@H](C)NC(=O)[C@H](CC(C)C)NC(=O)[C@H](CCCNC(=N)N)NC(=O)[C@H](CCC(N)=O)NC(=O)[C@@H](NC(=O)[C@H](C)NC(=O)[C@@H]1CSSC[C@H](NC(=O)[C@@H](N)CCCCNC(=O)COCCOCCNC(=O)CC[C@H](NC(=O)CCCCCCCCCCCCCCCCCCC(=O)O)C(=O)O)C(=O)N[C@@H](CC(N)=O)C(=O)N[C@@H]([C@@H](C)O)C(=O)N[C@@H](C)C(=O)N[C@@H]([C@@H](C)O)C(=O)N1)[C@@H](C)O)C(=O)N1CCC[C@H]1C(=O)N[C@@H](CO)C(=O)N[C@@H](CO)C(=O)N[C@H](C(=O)N[C@@H](CC(N)=O)C(=O)N[C@H](C(=O)NCC(=O)N[C@@H](Cc1c[nH]cn1)C(=O)N[C@@H](CC(N)=O)C(=O)N[C@H](C(=O)N[C@@H](Cc1ccc(O)cc1)C(N)=O)[C@@H](C)O)C(C)C)[C@@H](C)O, Synthetic acylated analogue of human amylin; also called compound 80)
2 | 13.3 | K([γGlu-C20 diacid])CNTATCATQRLAHFLRHSSPNFGAIPSSTNVGHNTY-NH2 (disulfide 2-7; N-terminus assumed; SMILES CC[C@H](C)[C@H](NC(=O)[C@H](C)NC(=O)CNC(=O)[C@H](Cc1ccccc1)NC(=O)[C@H](CC(N)=O)NC(=O)[C@@H]1CCCN1C(=O)[C@H](CO)NC(=O)[C@H](CO)NC(=O)[C@H](Cc1c[nH]cn1)NC(=O)[C@H](CCCNC(=N)N)NC(=O)[C@H](CC(C)C)NC(=O)[C@H](Cc1ccccc1)NC(=O)[C@H](Cc1c[nH]cn1)NC(=O)[C@H](C)NC(=O)[C@H](CC(C)C)NC(=O)[C@H](CCCNC(=N)N)NC(=O)[C@H](CCC(N)=O)NC(=O)[C@@H](NC(=O)[C@H](C)NC(=O)[C@@H]1CSSC[C@H](NC(=O)[C@@H](N)CCCCNC(=O)CC[C@H](NC(=O)CCCCCCCCCCCCCCCCCCC(=O)O)C(=O)O)C(=O)N[C@@H](CC(N)=O)C(=O)N[C@@H]([C@@H](C)O)C(=O)N[C@@H](C)C(=O)N[C@@H]([C@@H](C)O)C(=O)N1)[C@@H](C)O)C(=O)N1CCC[C@H]1C(=O)N[C@@H](CO)C(=O)N[C@@H](CO)C(=O)N[C@H](C(=O)N[C@@H](CC(N)=O)C(=O)N[C@H](C(=O)NCC(=O)N[C@@H](Cc1c[nH]cn1)C(=O)N[C@@H](CC(N)=O)C(=O)N[C@H](C(=O)N[C@@H](Cc1ccc(O)cc1)C(N)=O)[C@@H](C)O)C(C)C)[C@@H](C)O, Synthetic acylated analogue of human amylin; also called compound 81)
